The values that follow come from publication PMC11724882, “Molecular basis for the enzymatic inactivity of class III glutaredoxin ROXY9 on standard glutathionylated substrates” (Nature Communications, 2025).

Values joined by “and” are separate entries in the source; they are usually repeats but may differ in a detail not shown here. Identical values can stand only once.

Usually pKa stands for the pH at which an ionisable group is half protonated. The stoichiometry N is the number of molecules, sites or subunits per partner or assembly.

The target of series [1] is Cys23 (UniProt position 23, FSKTYCPYCVR). In words: chemical modification. The conditions noted are these: buffers at a normality of 0.1; no added salt stated; citrate pH 2.0-6.0; KH2PO4/Na2HPO4 pH 6.5-8.0; Na2B4O7 pH 8.5-10.0. Protein was desalted into 5 mM HEPES pH 7.0. 10 µl protein was mixed with 40 µl pH buffer and 5 µl 100 mM IAM.; Pre-reduced with 10 mM DTT and desalted; no glutathione or other ligand; native protein during the IAM step.

Series [2] has as its target Cys23 (UniProt position 23, FSKTYCPYSVR). The series can be described thus: chemical modification. The conditions noted are these: buffers at a normality of 0.1; no added salt stated; citrate pH 2.0-6.0; KH2PO4/Na2HPO4 pH 6.5-8.0; Na2B4O7 pH 8.5-10.0. Protein was desalted into 5 mM HEPES pH 7.0. 10 µl protein was mixed with 40 µl pH buffer and 5 µl 100 mM IAM.; Pre-reduced with 10 mM DTT and desalted; no glutathione or other ligand; native protein during the IAM step.

Series [3] concerns the target Cys21 (UniProt position 21, FTKSSCCLCYA). The series can be described thus: chemical modification. The conditions noted are these: buffers at a normality of 0.1; no added salt stated; citrate pH 2.0-6.0; KH2PO4/Na2HPO4 pH 6.5-8.0; Na2B4O7 pH 8.5-10.0. Protein was desalted into 5 mM HEPES pH 7.0. 10 µl protein was mixed with 40 µl pH buffer and 5 µl 100 mM IAM.; Pre-reduced with 10 mM DTT and desalted; no glutathione or other ligand; native protein during the IAM step.

In series [4] the target is Cys21 (UniProt position 21, FTKSSCSLSYA). The series can be described thus: chemical modification. The conditions noted are these: buffers at a normality of 0.1; no added salt stated; citrate pH 2.0-6.0; KH2PO4/Na2HPO4 pH 6.5-8.0; Na2B4O7 pH 8.5-10.0. Protein was desalted into 5 mM HEPES pH 7.0. 10 µl protein was mixed with 40 µl pH buffer and 5 µl 100 mM IAM.; Pre-reduced with 10 mM DTT and desalted; no glutathione or other ligand; native protein during the IAM step.

The target of series [5] is Cys22 (UniProt position 23, FIKPTCPFARK). The conditions noted are these: cited from earlier work.
Series [6] concerns the target Cys22 (UniProt position 23, FIKPTCPFSRK). Conditions: cited from earlier work.
In series [7] the target is Cys22 (UniProt position 23, FIKPTCPFCRK). The conditions noted are these: cited from earlier work.
Series [8] deals with the molecule itself. The series can be described thus: SEC; analytical gel filtration of the affinity-purified strep-MBP fusion proteins (purified in the presence of 5 mM GSH); strep-MBP-ROXY9 also after DTT treatment. On the technique in general: In gel filtration, larger molecules generally elute earlier.

“Glutaredoxin GRXC2 (class I GRX), strep-MBP fusion, wild type (Arabidopsis thaliana)”: in the series with Cys23 [1], the pKa result is “between 3.0 and 3.5”.
In the case of “Glutaredoxin GRXC2-CSS variant (only CysA retained), strep-MBP fusion (Arabidopsis thaliana; C26S;C80S)”, in the series with Cys23 [2], the pKa entry was “between 3.5 and 4.0”.
Consider “Glutaredoxin ROXY9 (class III / CC-type GRX, CEPD2), strep-MBP fusion, wild type (Arabidopsis thaliana)”, for which the pKa result with Cys21 [3] is “between pH 4 and 4.5”.
On to “Glutaredoxin ROXY9 single-cysteine variant (only Cys21 retained), strep-MBP fusion (Arabidopsis thaliana; C22S;C24S;C49S;C61S)”, for which, in the series with Cys21 [4], the pKa result is “between 6 and 7”.
For “Pig glutaredoxin (liver thioltransferase) C25A (Sus scrofa; C25A)”, the pKa in the series with Cys22 [5] is given as 5.9.
For the molecule “Pig glutaredoxin (liver thioltransferase) C25S (Sus scrofa; C25S)”, in the series with Cys22 [6], the pKa is reported as 4.9.
Take “Pig glutaredoxin (liver thioltransferase), wild type (Sus scrofa)”: the pKa in the series with Cys22 [7] is given as 3.8.

B1: strep-MBP-ROXY9 (enzyme, Arabidopsis thaliana, UniProt O82255 1-102, looked up)
chain: MDKVMRMSSEKGVVIFTKSSCCLCYAVQILFRDLRVQPTIHEIDNDPDCREIEKALLRLGCSTAVPAVFVGGKLVGSTNEVMSLHLSGSLVPLIKPYQSILY
notes: class III glutaredoxin ROXY9, Arabidopsis thaliana, AT2G47880; ORF inserted into a variant of MacroLab vector 438-C (modified pFastBac, Addgene plasmid 48296) in which the His-tag was exchanged for Strep-tag II; a TEV site lies between the tag and ROXY9; also called class III GRX ROXY9; CEPD2; source: Hi5 insect cells (baculovirus), purified (MBPTrap, eluted with maltose, 5 mM GSH in buffer)
As to B1, the “stoichiometry N” value in series [8] was 2 and 3.
